Laboratory results taken from patent US20220389088A1 (UNIVERSITY OF FLORIDA RESEARCH FOUNDATION, published 2022).

T1: recombinant human cANGPTL4 (C-terminus fibrinogen-like signaling peptide of angiopoietin-like 4) (human, UniProt Q9BY76 166-406)
T1 construct: also called C-terminus of ANGPTL4
T1 sequence: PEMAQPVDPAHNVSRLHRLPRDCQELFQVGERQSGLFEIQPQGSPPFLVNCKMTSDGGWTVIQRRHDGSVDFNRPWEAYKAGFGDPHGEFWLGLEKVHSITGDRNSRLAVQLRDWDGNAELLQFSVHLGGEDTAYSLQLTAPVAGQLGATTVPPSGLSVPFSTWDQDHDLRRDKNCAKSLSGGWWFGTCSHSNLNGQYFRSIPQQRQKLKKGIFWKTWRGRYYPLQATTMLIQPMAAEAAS


Legend:
[1] = biological target: T1, recombinant human cANGPTL4 (C-terminus …); assay: direct ELISA of hybridoma supernatants
[2] = biological target: T1, recombinant human cANGPTL4 (C-terminus …); assay: SPR (Reichert 2SPR), purified recombinant human cANGPTL4
Experimental: The kinetic binding parameters and affinity of the purified antibodies was determined by surface plasmon resonance (SPR) using Reichert 2SPR machine (Reichert Technologies) and purified recombinant human cANGPTL4 (Table 2).

Binder | binding result [1] | Kd [2] [nM] | koff [2] [s⁻¹] | kon [2] [M⁻¹ s⁻¹]
Ab-B, monoclonal rat-anti-human cANGPTL4 antibody (antibody, V domains shown) VH: EVQLVESGGGLVQPGRSLKLSCAASGFTFSNYGMAWVRQTPTKGLEWVASISTGGSDTYYRDSVKGRFTISRDNAKNTQYLQMDSLRSEDTATYYCARQGFTEDTDYWGQGVMVTVSS VL: DIQMTQSPSFLSASVGDRVTINCKASQNINKYLNWYQQKLGEAPKRLIYNTNNLQTGIPSRFSGSGSGTDYTLTISSLQPEDFATYFCLQHNSFPGTFGGGTKLELK | – | 0.132 | 3.69e-05 | 269000
Ab-C, monoclonal rat-anti-human cANGPTL4 antibody (antibody, V domains shown) VH: EVQLVDSGGGLVQPGRSLKLSCAASGFTFSNYGMAWVRQIPTKGLEWVASISSGGGNTYYRDSVKGRFTISRDNAKNTQYLQMDSLRSEDTATYYCARDPGITGFDYWGQGVMVTVSS VL: DIQMTQSPSFLSASVGDRVTINCKASQNINKYLNWYQQKLGEAPKRLIYNTNTLQTGIPSRFSGSGSGTDYTLTISSLQPEDFATYFCLQHNSFPGTFGPGTTLELK | – | 0.199 | 1.35e-05 | 67800

The next lines start with the values.

binding result [1] | Kd [2] [nM] | koff [2] [s⁻¹] | kon [2] [M⁻¹ s⁻¹] | Binder
binds | – | – | – | Ab-A, monoclonal rat-anti-human cANGPTL4 antibody (antibody, V domains shown) VH: QVQLKESGPGLMQPSETLSLTCTVSGFSLTTNGVGWVRQPLGKGLVWMGTIWAGGSTNYNSAVQSRLSISRDTSKSQVFLKMNSLQPEDTGTYYCARQPFYYYDGIHYTRGYFDYWGQGVMVTVSS VL: DVQMTQSPYNLAASPGESVSINCKASKSISKYLAWYQQKLGKANKLLIYDGSTLQSGIPSRFSGSGSGTDFTLTIRSLEPEDFGLYYCQQHNEYPATFGGGTKLELK
– | 0.48 | 3.89e-05 | 81100 | Ab-D, monoclonal rat-anti-human cANGPTL4 antibody (antibody, V domains shown, also called Antibody Ab-D) VH: EVQLVESGGGLVQPGRSLKLSCAASGFTFSNYGMAWVRQTPTKGLEWVASISTGGGNTYYRDSVKGRFTISRDNAKNTQYLQMDSLRSEDTATYYCARDSTVDYFDYWGQGVMVTVSS VL: DIQMTQSPSFLSASVGDRVTINCKASQKINKYLNWYQQKLGEAPKRLIYNTNNLQTGIPSRFSGSGSGTDFTLTISSLQPEDFATYCCLQHNSFPGTFGGGTKLELK
– | 3.74 | 8.07e-05 | 21500 | Ab-E, monoclonal rat-anti-human cANGPTL4 antibody (antibody, V domains shown) VH: EVQLVESGGGLVQPGRSMKLSCAASGFTFSSFAMAWVRQAPTKGLEWVASISYDGGNTYYRDSVKGRFTISRDNAKSSLYLQMDSLRSEDTSTYYCASADLIWWYFDFWGPGTMVTVSS VL: DIQMTQSPASLSASLEEIVTITCQASQDIGNWLAWYQQKPGKSPQLLIYGSTSLADGVPSRFSGSRSGTQYSLKISRLQVEDIGIYYCQQASSAPPTFGAGTKLELK
